In patent US20190046659A1:

Biological target: human GPC3 on GPC3-positive cells (HepG2, Huh-7, SK-Hep-1 GPC3) (human) (UniProt P51654)
Assay: cell-based or functional assay

With “chimeric antigen receptor GC33-28BBZ (GC33 scFv-CD28a-CD28b-CD137-CD3 zeta) on T cells” as the substance, how does the killing rate of CAR T cells on Huh-7 cells, effector target ratio 1:3 read?
The killing rate of CAR T cells on Huh-7 cells, effector target ratio 1:3 was 23%.

Which killing rate of CAR T cells on Huh-7 cells, effector target ratio 1:1 does the source give for “chimeric antigen receptor GC33-28Z (GC33 scFv-CD28a-CD28b-CD3 zeta) on T cells” here?
The killing rate of CAR T cells on Huh-7 cells, effector target ratio 1:1 was 22%.

What about the killing rate of CAR T cells on Huh-7 cells, effector target ratio 1:3 of the same substance?
Its killing rate of CAR T cells on Huh-7 cells, effector target ratio 1:3 is 6%.
